Measured values reported in publication PMC12282080 (2025).

Experiments:
[1] = biological target: T1, SFTSV Gn glycoprotein (G19-K452, C3 genotype) (SFTSV (severe fever with …)); experiment: BLI
[2] = biological target: T1, SFTSV Gn glycoprotein (G19-K452, C3 …); experiment: BLI; remark: listed apart in the source

Binder	koff [1] [s⁻¹]	Kd [2] [nM]
SD22 monoclonal antibody (human IgG1) (antibody, V domains shown) VH: QVQLVESGGGVVQPGRSLRLSCAASGFTFSGFGMHWVRQAPGKGLEWVALISYDGSDTYYSDSVKGRFTISRDNSKNTLYLQLKSLRPDDTAVYYCVGDRDYFGSGFFDHWGQGTLVTVSS VL: DIQMTQSPSSLSASIGDRVTITCRASRHITNHLNWYQHKPGRAPKLLIYEASNLQAGVPSRFSGSGSGTDFTFTISSLQPEDFATYYCQQYDNLPPAFGGGTKVDIK	4.01e-05	0.205
SD4-X monoclonal antibody (human IgG1) (antibody, V domains shown) VH: QVQLVESGGGVVQPGRSLRLSCAASGFTFSSYGMHWVRQAPGKGLEWVAVISYDGSNKYYADSVKGRFTISRDNSKNTLYLQMNSLRAEDTAVYYCAKDRDYYGSGFFDYWGQGTLVTVSS VL: DIQMTQSPSSLSASVGDRVTITCQASQDISNHLNWYQEKPGKVPKLLIYEASNVETGVPSRFSGSGSGTDFTFTISSLQPEDIATYYCQQYDNLPYTFGQGTKLEIK	0.000108	1.11
SD4-S monoclonal antibody (human IgG1) (antibody, V domains shown) VH: QVQLVESGGGVLQPGRSLRLSCAASGFTFSGYGMHWVRQAPGKGLEWVAVISYDGSEKNYGDSVKGRFTISRDNSKNTLYLQINSLRTEDRAVYYCAKDRDYFGSGFFDYWGQGTLVTVSS VL: DIQMTQSPSSLSASVGDRVTITCQASQDITKYLNWYQQKPGKAPKLLIFEASNLETGVPSRFSGSGSGTDFTFTISSLQPEDFATYYCQQYGDFPLTFGGGTKVEIK	2.9e-05	0.196
SD4 monoclonal antibody (human IgG1) (antibody, V domains shown) VH: QVQLVESGGGVVQPGRSLRLSCAASGFPFSGYGMHWVRQAPGKGLEWVAVISYDGSEKNYADSVKGRFTISRDNSKNTLYLQMNSLRVEDTAVYYCAKDRDYYGSGFYDYWGQGTLVTVSS VL: DIQMTQSPSSLSASVGDRVTITCQASQHISNHLNWYQQKPGTAPTLLIYEASNLETGVPSRFSGSGSGTDFSFTISSLRPEDFATYYCQQYDNFPLTFGPGTTMDIK	1.18e-05	
SD12 monoclonal antibody (human IgG1) (antibody, V domains shown) VH: EVQLLESGGGLVQPGGSLRLSCAASGFIFSSYAMSWVRQAPGKGLEWVSAISGSGGSTYYADSVKGRFTISRDNSKNTLYLQMNSLRDEDTAVYYCAKDRSYVSSGFFDDWGQGTLVTVSS VL: DIQMTQSPSSLSASVGDRVTITCQASQDISNYLNWYQQRPGKAPKLLIFEASNLETGVPSRFSGSGSGTDFTFTISSLQPEDIATYYCQQYENLLYTFGQGTKLEIK	0.000179	2.37
